Assays:
Assay in all cases: ELISA-type assay, F3 module coated
[1] = biological target: T1, Recombinant fibronectin module ^1F3 (Homo sapiens (Human), UniProt P02751 608-700)
T1 construct: Expressed with N-terminal His-tag, purified by Ni-NTA and ion-exchange chromatography; also called ^1F3 module

[2] = biological target: T2, Recombinant fibronectin modules ^1-2F3 (Homo sapiens (Human), UniProt P02751 608-809)
T2 construct: Expressed with N-terminal His-tag

[3] = biological target: Recombinant fibronectin module ^3F3 (Homo sapiens (Human), UniProt P02751 810-900)
Sequence of Recombinant fibronectin module ^3F3 (P02751 other isoform, or with tags, fused parts or gaps limits assumed): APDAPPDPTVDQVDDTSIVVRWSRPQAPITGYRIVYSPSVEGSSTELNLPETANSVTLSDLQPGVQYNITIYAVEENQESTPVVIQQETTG

Measured: binding result

T1 sequence (P02751 608-700 limits assumed): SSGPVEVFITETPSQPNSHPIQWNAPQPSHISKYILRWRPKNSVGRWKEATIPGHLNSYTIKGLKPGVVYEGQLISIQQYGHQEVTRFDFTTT
T2 sequence (P02751 608-809 limits assumed): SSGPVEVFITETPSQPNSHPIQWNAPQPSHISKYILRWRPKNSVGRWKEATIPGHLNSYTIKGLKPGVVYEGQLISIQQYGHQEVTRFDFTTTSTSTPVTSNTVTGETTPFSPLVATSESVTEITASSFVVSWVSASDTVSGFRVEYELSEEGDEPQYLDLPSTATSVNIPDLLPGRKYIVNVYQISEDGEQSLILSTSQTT

B1: FnbpA peptide D3 (S. aureus fibronectin-binding peptide) (peptide)
peptide: GFNKHTEIIEEDTNKDKPSYQFGGHNSVDFEEDTLPK
notes: domain: D3; also called peptide D3 from FnbpA; D3 fragment of S. aureus FnbpA
no binding: [1] | [2] | [3]

Source: patent US20090170751A1 (published 2009)
